From the RNAGym collection of RNA variant scans (doi:10.1093/molbev/msab373)

B1: Azoarcus group I ribozyme (parent)
chain: GUGCCUUGCGCCGGGAAACCACGCAAGGGAUGGUGUCAAAUUCGGCGAAACCUAAGCGCCCGCCCGGGCGUAUGGCAACGCCGAGCCAAGCUUCGGCGCCUGCGCCGAUGAAGGUGUAGAGACUAGACGGCACCCACCUAAGGCAAACGCUAUGGUGAAGGCAUAGUCCAGGGAGUGGCGAAAGUCACACAAACCGG

Variants of: B1
Test: reverse-splicing fitness (ratio to wild type); higher = more active; in vitro selection; Mg2+ level not given
Method in brief: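 An in vitro group I ribozyme library with randomized positions was T7-transcribed and gel-purified. In triplicate, 10 pmol RNA in EPPS pH 7.5 was reacted with 50 pmoles of a 30-nt RNA substrate for 1 h at 37 °C across several added MgCl2 levels (1–48 mM), then stopped with EDTA. Products were reverse transcribed from a substrate-complementary primer, PCR-amplified and sequenced (HiSeq 4000). Fitness is a variant's read proportion after selection over that before, normalised to wild type.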

Row | Variant | reverse-splicing fitness
1 | C82A A111U A120U C150G C169A | 0.00872
2 | C82A A111U A120U C150G C169U | 0.00659
3 | C82A A111U A120U C150G C169G | 0.00683
4 | C82A A111U A120U C150A | 0.00876
5 | C82A A111U A120U C150G | 0.00757
6 | C82A A111U A120U C150U | 0.016
7 | C82A A111U A145C C150G C169U U176A | 0.00896
8 | C82A A111U A145C C150G C169U U176C | 0.0103
9 | C82A A111U A145C C150G C169U U176G | 0.00633
10 | C82A A111U A120U A145C C169U U176G | 0.00193
11 | C82A A111U A120U A145C C169U U176C | 0.0036
12 | C82A A111U A120U A145C C169U U176A | 0.00334
13 | C82A A111U A120U A145G C150A U176C | 0.00989
14 | C82A A111U A120U A145G C150A U176G | 0.00328
15 | C82A A111U A120U A145G C150A U176A | 0.00879
16 | C82A A111U A120U A145C C150G C169G U176C | 0.0024
17 | C82A A111U A120U A145C C150G C169G U176A | 0.00351
18 | C82A A111U A120U A145C C150G C169G U176G | 0.00242
19 | C82A A111U A120U A145U C150U C169U U176G | 0.00299
20 | C82A A111U A120U A145U C150U C169U U176C | 0.00339
21 | C82A A111U A120U A145U C150U C169U U176A | 0.00333

Row | Variant | reverse-splicing fitness
22 | C82A A111U A120U C150G C169A U176C | 0.00557
23 | C82A A111U A120U C150G C169A U176A | 0.00623
24 | C82A A111U A120U C150G C169A U176G | 0.00311
25 | C82A A111U A120U A145C C150A C169G U176A | 0.00303
26 | C82A A111U A120U A145C C150A C169G U176C | 0.00303
27 | C82A A111U A120U A145C C150A C169G U176G | 0.0026
28 | C82A A111U A120U A145G C150G C169U U176G | 0.00513
29 | C82A A111U A120U A145G C150G C169U U176C | 0.0089
30 | C82A A111U A120U A145G C150G C169U U176A | 0.00862
31 | C82A A111U A120U A145C U176C | 0.00758
32 | C82A A111U A120U A145C U176G | 0.00274
33 | C82A A111U A120U A145C U176A | 0.00613
34 | C82A A111U A120U A145G C169A U176G | 0.00239
35 | C82A A111U A120U A145G C169A U176C | 0.00356
36 | C82A A111U A120U A145G C169A U176A | 0.00409
37 | C82A A111U A120U A145C C150A C169A | 0.00277
38 | C82A A111U A120U A145C C150A C169U | 0.00267
39 | C82A A111U A120U A145C C150A C169G | 0.00256
40 | C82A A111U A120U A145U C150A C169A U176A | 0.00303
41 | C82A A111U A120U A145U C150A C169A U176G | 0.00212
42 | C82A A111U A120U A145U C150A C169A U176C | 0.00269

Row | Variant | reverse-splicing fitness
43 | C82A A111U A120U A145U C150A C169U U176C | 0.00277
44 | C82A A111U A120U A145U C150A C169U U176A | 0.00317
45 | C82A A111U A120U A145U C150A C169U U176G | 0.00245
46 | C82A A111U A120U A145G C150U C169A | 0.00728
47 | C82A A111U A120U A145G C150U C169G | 0.00728
48 | C82A A111U A120U A145G C150U C169U | 0.00663
49 | C82A A111U A120U A145C C150G C169A | 0.00347
50 | C82A A111U A120U A145C C150G C169U | 0.00392
51 | C82A A111U A120U A145C C150G C169G | 0.0039
52 | C82A A111U A145C C150U C169U U176G | 0.00661
53 | C82A A111U A145C C150U C169U U176C | 0.00945
54 | C82A A111U A145C C150U C169U U176A | 0.0138
55 | C82A A111U A120U A145G C150G C169G U176A | 0.00885
56 | C82A A111U A120U A145G C150G C169G U176C | 0.00639
57 | C82A A111U A120U A145G C150G C169G U176G | 0.00413
58 | C82A A111U A120U A145U C150U U176G | 0.00385
59 | C82A A111U A120U A145U C150U U176C | 0.00878
60 | C82A A111U A120U A145U C150U U176A | 0.00828
61 | C82A A111U A120U A145U C150G C169A U176C | 0.00325
62 | C82A A111U A120U A145U C150G C169A U176G | 0.00285
63 | C82A A111U A120U A145U C150G C169A U176A | 0.00398

Row | Variant | reverse-splicing fitness
64 | C82A A111U A120U A145C C169A U176A | 0.00304
65 | C82A A111U A120U A145C C169A U176G | 0.00209
66 | C82A A111U A120U A145C C169A U176C | 0.00227
67 | C82A A111U A120U C150G C169U U176C | 0.00451
68 | C82A A111U A120U C150G C169U U176G | 0.00327
69 | C82A A111U A120U C150G C169U U176A | 0.00341
70 | C82A A111U A120U C150U C169U U176G | 0.00262
71 | C82A A111U A120U C150U C169U U176C | 0.00448
72 | C82A A111U A120U C150U C169U U176A | 0.00662
73 | C82A A111U A120U A145U C150G C169G | 0.00379
74 | C82A A111U A120U A145U C150G C169U | 0.00332
75 | C82A A111U A120U A145U C150G C169A | 0.00467
76 | C82A A111U A120U A145C C150U C169U U176C | 0.00282
77 | C82A A111U A120U A145C C150U C169U U176A | 0.00291
78 | C82A A111U A120U A145C C150U C169U U176G | 0.00236
79 | C82A A111U A145C C150U C169G U176G | 0.00743
80 | C82A A111U A145C C150U C169G U176A | 0.0233
81 | C82A A111U A145C C150U C169G U176C | 0.0141
82 | C82A A111U A145C C150G C169A U176C | 0.0076
83 | C82A A111U A145C C150G C169A U176A | 0.0086
84 | C82A A111U A145C C150G C169A U176G | 0.00755
